In paper PMC5482573:

Target: COPI coat leaf (one coatomer complex with two Arf1 molecules) assembled on vesicle membranes (M. musculus | S. cerevisiae) (UniProt Q8CIE6)
Assay: cryo-EM structure; COPI coated vesicles with GTPγS incubated 15–20 min with a 10 molar excess of ArfGAP2; subtomogram averaging, difference map and classification; class with ArfGAP2 at 10.1 Å

Chain of R. norvegicus ArfGAP2, full-length, N-terminally His-tagged (Q3MID3 whole entry): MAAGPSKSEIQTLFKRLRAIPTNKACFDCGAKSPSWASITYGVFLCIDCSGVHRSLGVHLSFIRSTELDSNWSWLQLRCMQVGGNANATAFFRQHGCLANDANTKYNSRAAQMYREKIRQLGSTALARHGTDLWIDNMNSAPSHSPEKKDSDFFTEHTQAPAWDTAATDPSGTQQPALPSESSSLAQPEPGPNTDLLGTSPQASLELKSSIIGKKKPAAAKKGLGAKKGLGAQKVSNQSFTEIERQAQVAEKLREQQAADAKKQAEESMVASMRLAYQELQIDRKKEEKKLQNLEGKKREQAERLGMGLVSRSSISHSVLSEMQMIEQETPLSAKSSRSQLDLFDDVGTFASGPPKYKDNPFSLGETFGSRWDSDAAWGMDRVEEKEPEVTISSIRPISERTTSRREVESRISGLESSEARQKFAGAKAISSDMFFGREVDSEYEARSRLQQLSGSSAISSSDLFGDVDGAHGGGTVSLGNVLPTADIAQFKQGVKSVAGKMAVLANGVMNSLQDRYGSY

A share of the leaves in the class with bound ArfGAP2 of 65% was found for “R. norvegicus ArfGAP2, full-length, N-terminally His-tagged (from UniProt Q3MID3 1-520) (enzyme)” in this work.
